# Measurements from IntAct's records for PubMed 12700764.
# Molecular target: mef2b_human MEF2B (UniProt Q02080)
# Sequence (Q02080 whole entry): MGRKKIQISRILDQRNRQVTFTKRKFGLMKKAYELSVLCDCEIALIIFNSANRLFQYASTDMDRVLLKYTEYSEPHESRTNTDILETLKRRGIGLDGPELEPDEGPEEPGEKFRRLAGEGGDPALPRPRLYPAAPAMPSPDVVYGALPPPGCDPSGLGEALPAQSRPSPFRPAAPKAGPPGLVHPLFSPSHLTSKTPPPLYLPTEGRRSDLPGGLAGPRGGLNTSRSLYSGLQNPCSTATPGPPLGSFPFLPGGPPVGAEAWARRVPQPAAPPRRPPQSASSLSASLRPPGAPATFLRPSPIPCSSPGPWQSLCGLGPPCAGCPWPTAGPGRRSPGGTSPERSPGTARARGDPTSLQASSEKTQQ
row,Substance,effect of a mutation on the interaction
1,"Calcineurin-binding protein cabin-1 (Homo sapiens), Q9Y6J0 L2172K",disrupting interaction strength
2,"Calcineurin-binding protein cabin-1 (Homo sapiens), Q9Y6J0 L2172W",disrupting interaction strength
3,"Calcineurin-binding protein cabin-1 (Homo sapiens), Q9Y6J0 Q2170W",with no effect

# The next lines start with the values.
row,effect of a mutation on the interaction,Substance
1,decreasing interaction strength,"Calcineurin-binding protein cabin-1 (Homo sapiens), Q9Y6J0 I2176A"
2,disrupting interaction strength,"Calcineurin-binding protein cabin-1 (Homo sapiens), Q9Y6J0 L2172A"
3,with no effect,"Calcineurin-binding protein cabin-1 (Homo sapiens), Q9Y6J0 Q2170A"
